Ten molecules from article PMC8298264, “Function of cofactor Akirin2 in the regulation of gene expression in model human neutrophil-like HL60 cells” (Bioscience Reports, 2021) can be followed below.

The chains are these.
B1: sp¦P04083¦ANXA1_HUMAN (protein, UniProt P04083 2-346, looked up)
Annexin A1: AMVSEFLKQAWFIENEEQEYVQTVKSSKGGPGSAVSPYPTFNPSSDVAALHKAIMVKGVDEATIIDILTKRNNAQRQQIKAAYLQETGKPLDETLKKALTGHLEEVVLALLKTPAQFDADELRAAMKGLGTDEDTLIEILASRTNKEIRDINRVYREELKRDLAKDITSDTSGDFRNALLSLAKGDRSEDFGVNEDLADSDARALYEAGERRKGTDVNVFNTILTTRSYPQLRRVFQKYTKYSKHDMNKVLDLELKGDIEKCLTAIVKCATSKPAFFAEKLHQAMKGVGTRHKALIRIMVSRSEIDMNDIKAFYQKMYGISLCQAILDETKGDYEKILVALCGGN
B2: sp¦P23921¦RIR1_HUMAN (protein, UniProt P23921 1-792, looked up)
Ribonucleoside-diphosphate …: MHVIKRDGRQERVMFDKITSRIQKLCYGLNMDFVDPAQITMKVIQGLYSGVTTVELDTLAAETAATLTTKHPDYAILAARIAVSNLHKETKKVFSDVMEDLYNYINPHNGKHSPMVAKSTLDIVLANKDRLNSAIIYDRDFSYNYFGFKTLERSYLLKINGKVAERPQHMLMRVSVGIHKEDIDAAIETYNLLSERWFTHASPTLFNAGTNRPQLSSCFLLSMKDDSIEGIYDTLKQCALISKSAGGIGVAVSCIRATGSYIAGTNGNSNGLVPMLRVYNNTARYVDQGGNKRPGAFAIYLEPWHLDIFEFLDLKKNTGKEEQRARDLFFALWIPDLFMKRVETNQDWSLMCPNECPGLDEVWGEEFEKLYASYEKQGRVRKVVKAQQLWYAIIESQTETGTPYMLYKDSCNRKSNQQNLGTIKCSNLCTEIVEYTSKDEVAVCNLASLALNMYVTSEHTYDFKKLAEVTKVVVRNLNKIIDINYYPVPEACLSNKRHRPIGIGVQGLADAFILMRYPFESAEAQLLNKQIFETIYYGALEASCDLAKEQGPYETYEGSPVSKGILQYDMWNVTPTDLWDWKVLKEKIAKYGIRNSLLIAPMPTASTAQILGNNESIEPYTSNIYTRRVLSGEFQIVNPHLLKDLTERGLWHEEMKNQIIACNGSIQSIPEIPDDLKQLYKTVWEISQKTVLKMAAERGAFIDQSQSLNIHIAEPNYGKLTSMHFYGWKQGLKTGMYYLRTRPAANPIQFTLNKEKLKDKEKVSKEEEEKERNTAAMVCSLENRDECLMCGS
B3: sp¦Q9NPF4¦OSGEP_HUMAN (protein, UniProt Q9NPF4 1-335, looked up)
tRNA N6-adenosine …: MPAVLGFEGSANKIGVGVVRDGKVLANPRRTYVTPPGTGFLPGDTARHHRAVILDLLQEALTESGLTSQDIDCIAYTKGPGMGAPLVSVAVVARTVAQLWNKPLVGVNHCIGHIEMGRLITGATSPTVLYVSGGNTQVIAYSEHRYRIFGETIDIAVGNCLDRFARVLKISNDPSPGYNIEQMAKRGKKLVELPYTVKGMDVSFSGILSFIEDVAHRMLATGECTPEDLCFSLQETVFAMLVEITERAMAHCGSQEALIVGGVGCNVRLQEMMATMCQERGARLFATDERFCIDNGAMIAQAGWEMFRAGHRTPLSDSGVTQRYRTDEVEVTWRD
B4: sp¦Q9UHD1¦CHRD1_HUMAN (protein, UniProt Q9UHD1 2-332, looked up)
Cysteine and histidine-rich …: ALLCYNRGCGQRFDPETNSDDACTYHPGVPVFHDALKGWSCCKRRTTDFSDFLSIVGCTKGRHNSEKPPEPVKPEVKTTEKKELCELKPKFQEHIIQAPKPVEAIKRPSPDEPMTNLELKISASLKQALDKLKLSSGNEENKKEEDNDEIKIGTSCKNGGCSKTYQGLESLEEVCVYHSGVPIFHEGMKYWSCCRRKTSDFNTFLAQEGCTKGKHMWTKKDAGKKVVPCRHDWHQTGGEVTISVYAKNSLPELSRVEANSTLLNVHIVFEGEKEFDQNVKLWGVIDVKRSYVTMTATKIEITMRKAEPMQWASLELPAAKKQEKQKDATTD
B5: sp¦P09429¦HMGB1_HUMAN (protein, UniProt P09429 1-215, looked up)
High mobility group protein B1: MGKGDPKKPRGKMSSYAFFVQTCREEHKKKHPDASVNFSEFSKKCSERWKTMSAKEKGKFEDMAKADKARYEREMKTYIPPKGETKKKFKDPNAPKRPPSAFFLFCSEYRPKIKGEHPGLSIGDVAKKLGEMWNNTAADDKQPYEKKAAKLKEKYEKDIAAYRAKGKPDAAKKGVVKAEKSKKKKEEEEDEEDEEDEEEEEDEEDEDEEEDDDDE
B6: sp¦P52789¦HXK2_HUMAN (protein, UniProt P52789 1-917, looked up)
Hexokinase-2: MIASHLLAYFFTELNHDQVQKVDQYLYHMRLSDETLLEISKRFRKEMEKGLGATTHPTAAVKMLPTFVRSTPDGTEHGEFLALDLGGTNFRVLWVKVTDNGLQKVEMENQIYAIPEDIMRGSGTQLFDHIAECLANFMDKLQIKDKKLPLGFTFSFPCHQTKLDESFLVSWTKGFKSSGVEGRDVVALIRKAIQRRGDFDIDIVAVVNDTVGTMMTCGYDDHNCEIGLIVGTGSNACYMEEMRHIDMVEGDEGRMCINMEWGAFGDDGSLNDIRTEFDQEIDMGSLNPGKQLFEKMISGMYMGELVRLILVKMAKEELLFGGKLSPELLNTGRFETKDISDIEGEKDGIRKAREVLMRLGLDPTQEDCVATHRICQIVSTRSASLCAATLAAVLQRIKENKGEERLRSTIGVDGSVYKKHPHFAKRLHKTVRRLVPGCDVRFLRSEDGSGKGAAMVTAVAYRLADQHRARQKTLEHLQLSHDQLLEVKRRMKVEMERGLSKETHASAPVKMLPTYVCATPDGTEKGDFLALDLGGTNFRVLLVRVRNGKWGGVEMHNKIYAIPQEVMHGTGDELFDHIVQCIADFLEYMGMKGVSLPLGFTFSFPCQQNSLDESILLKWTKGFKASGCEGEDVVTLLKEAIHRREEFDLDVVAVVNDTVGTMMTCGFEDPHCEVGLIVGTGSNACYMEEMRNVELVEGEEGRMCVNMEWGAFGDNGCLDDFRTEFDVAVDELSLNPGKQRFEKMISGMYLGEIVRNILIDFTKRGLLFRGRISERLKTRGIFETKFLSQIESDCLALLQVRAILQHLGLESTCDDSIIVKEVCTVVARRAAQLCGAGMAAVVDRIRENRGLDALKVTVGVDGTLYKLHPHFAKVMHETVKDLAPKCDVSFLQSEDGSGKGAALITAVACRIREAGQR
B7: sp¦P37837¦TALDO_HUMAN (protein, UniProt P37837 1-337, looked up)
Transaldolase: MSSSPVKRQRMESALDQLKQFTTVVADTGDFHAIDEYKPQDATTNPSLILAAAQMPAYQELVEEAIAYGRKLGGSQEDQIKNAIDKLFVLFGAEILKKIPGRVSTEVDARLSFDKDAMVARARRLIELYKEAGISKDRILIKLSSTWEGIQAGKELEEQHGIHCNMTLLFSFAQAVACAEAGVTLISPFVGRILDWHVANTDKKSYEPLEDPGVKSVTKIYNYYKKFSYKTIVMGASFRNTGEIKALAGCDFLTISPKLLGELLQDNAKLVPVLSAKAAQASDLEKIHLDEKSFRWLHNEDQMAVEKLSDGIRKFAADAVKLERMLTERMFNAENGK
B8: sp¦O75534¦CSDE1_HUMAN (protein, UniProt O75534 1-798, looked up)
Cold shock domain-containing …: MSFDPNLLHNNGHNGYPNGTSAALRETGVIEKLLTSYGFIQCSERQARLFFHCSQYNGNLQDLKVGDDVEFEVSSDRRTGKPIAVKLVKIKQEILPEERMNGQVVCAVPHNLESKSPAAPGQSPTGSVCYERNGEVFYLTYTPEDVEGNVQLETGDKINFVIDNNKHTGAVSARNIMLLKKKQARCQGVVCAMKEAFGFIERGDVVKEIFFHYSEFKGDLETLQPGDDVEFTIKDRNGKEVATDVRLLPQGTVIFEDISIEHFEGTVTKVIPKVPSKNQNDPLPGRIKVDFVIPKELPFGDKDTKSKVTLLEGDHVRFNISTDRRDKLERATNIEVLSNTFQFTNEAREMGVIAAMRDGFGFIKCVDRDVRMFFHFSEILDGNQLHIADEVEFTVVPDMLSAQRNHAIRIKKLPKGTVSFHSHSDHRFLGTVEKEATFSNPKTTSPNKGKEKEAEDGIIAYDDCGVKLTIAFQAKDVEGSTSPQIGDKVEFSISDKQRPGQQVATCVRLLGRNSNSKRLLGYVATLKDNFGFIETANHDKEIFFHYSEFSGDVDSLELGDMVEYSLSKGKGNKVSAEKVNKTHSVNGITEEADPTIYSGKVIRPLRSVDPTQTEYQGMIEIVEEGDMKGEVYPFGIVGMANKGDCLQKGESVKFQLCVLGQNAQTMAYNITPLRRATVECVKDQFGFINYEVGDSKKLFFHVKEVQDGIELQAGDEVEFSVILNQRTGKCSACNVWRVCEGPKAVAAPRPDRLVNRLKNITLDDASAPRLMVLRQPRGPDNSMGFGAERKIRQAGVID
B9: sp¦Q9GZU8¦PIP30_HUMAN (protein, UniProt Q9GZU8 1-254, looked up)
PSME3-interacting protein: MDGGDDGNLIIKKRFVSEAELDERRKRRQEEWEKVRKPEDPEECPEEVYDPRSLYERLQEQKDRKQQEYEEQFKFKNMVRGLDEDETNFLDEVSRQQELIEKQRREEELKELKEYRNNLKKVGISQENKKEVEKKLTVKPIETKNKFSQAKLLAGAVKHKSSESGNSVKRLKPDPEPDDKNQEPSSCKSLGNTSLSGPSIHCPSAAVCIGILPGLGAYSGSSDSESSSDSEGTINATGKIVSSIFRTNTFLEAP
B10: sp¦P12236¦ADT3_HUMAN (protein, UniProt P12236 1-298, looked up)
ADP/ATP translocase 3: MTEQAISFAKDFLAGGIAAAISKTAVAPIERVKLLLQVQHASKQIAADKQYKGIVDCIVRIPKEQGVLSFWRGNLANVIRYFPTQALNFAFKDKYKQIFLGGVDKHTQFWRYFAGNLASGGAAGATSLCFVYPLDFARTRLAADVGKSGTEREFRGLGDCLVKITKSDGIRGLYQGFSVSVQGIIIYRAAYFGVYDTAKGMLPDPKNTHIVVSWMIAQTVTAVAGVVSYPFDTVRRRMMMQSGRKGADIMYTGTVDCWRKIFRDEGGKAFFKGAWSNVLRGMGGAFVLVLYDELKKVI

In the test the test system is human HL60 cells. Description: SWATH-MS proteomics, differential protein representation, akirin2 KO vs WT HL60 cells. It is filed as cell-based. Conditions: SWATH-MS, akirin2 KO vs WT HL60 cells; over-represented in KO. The essentials: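 Read-out is label-free SWATH-MS protein area, globally normalized to total detected-protein area, with identifications held at 1% FDR against a library from information-dependent acquisition.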
On to B1, for which the “Fold Change” value is 1.503 and the “Log (Fold Change)” value was 0.1771.

With B2, the “Fold Change” value is 1.511 and the “Log (Fold Change)” value is reported as 0.1792.

Turning to B3, the “Fold Change” value came out at 1.5342 and the “Log (Fold Change)” value was 0.1859.

For B4, the “Fold Change” value is on record as 1.486 and the “Log (Fold Change)” value turned out to be 0.1721.

Regarding B5, the “Fold Change” value turned out to be 1.517 and the “Log (Fold Change)” value came out at 0.1809.

For B6, the “Fold Change” value amounted to 1.502 and the “Log (Fold Change)” value was 0.1767.

Consider B7, for which the “Fold Change” value stood at 1.543 and the “Log (Fold Change)” value came out at 0.1885.

Take B8: the “Fold Change” value stood at 1.544 and the “Log (Fold Change)” value stood at 0.1886.

Turning to B9, the “Fold Change” value is 1.523 and the “Log (Fold Change)” value came out at 0.1827.

In the case of B10, the “Fold Change” value turned out to be 1.53 and the “Log (Fold Change)” value came to 0.1848.
